{"source": "patent US20260124313A1", "about": "“SITE-SPECIFIC COVALENT LIGATION OF HUMAN SERUM ALBUMIN” (The Regents of the University of California, priority 2022, published 2026)", "biological_target": "T1, albumin in human serum (Homo sapiens, UniProt P02768)", "T1 construct": "tissue Sigma Aldrich; host or cells: human serum", "test": "Conjugation to serum-borne HSA in human serum, SDS-PAGE fluorescence and Coomassie Blue", "assay_type": "biochemical", "method": "Protein SDS-PAGE gels were exposed at green channel (Exc.=490 nm, Emm.=525 nm), then stained by Coomassie Blue.\nTo 100 μl human serum was added 10 μl FC-LYL1 or 10 μl FC-Mal stock solution (1 mM). The albumin content in serum is presumed to be 600 μM for healthy donors. The final concentrations of albumin and FC-labeled reactive probes in the reaction mixture are calculated to be 545 µM and 91 μM, respectively. The serum/ligands mixture was incubated at 37° C. in dark. The conjugation reactions were setup every 3 days, and […] conjugation reactions were setup in total for 3 weeks. The serum mixtures were subjected to electrophoresis and Coommassie Blue Staining without further treatment. Since albumin to probe ratio was about 6:1 and there are 5 known fatty acid binding sites on each albumin molecule, fatty acid binding site:probe ratio was over […]. We therefore believe significant portion of the reactive probes would be sequestered in the “non-productive” (no covalent ligation) fatty acid binding sites most of the time.", "note": "Non-standard residues stand in square brackets, D forms with d. No end group written: not given here. *: point of attachment. Myristoyl = CCCCCCCCCCCCCC(=O)*; Aad = N[C@@H](CCCC(=O)O)C(=O)O; Acryloyl = C=CC(=O)*", "data": [{"substance": "FC-LYL1: FITC-tagged LYL1 (Myristoyl-[dE]DK(Acryloyl)[dS][Aad]; not fully specified (C-terminus); also: FITC on amino group of C-terminal lysine)", "values": [{"measurement": "reaction speed in human serum", "setting": "545 μM albumin, 91 μM probe, 37° C.", "result": "slow reaction over days"}, {"measurement": "selectivity of protein labeling in serum", "setting": "human serum, SDS-PAGE green channel", "result": "can selectively label albumin content"}]}]}
